In article PMC6453779, “The Different Effects of Substrates and Nucleotides on the Complex Formation of ABC Transporters” (Structure(London, England:1993), 2019):
Each block holds one molecule with its values, some of them ahead of it.

How the values were obtained:
BtuCD = biological target: T1, BtuCD (Escherichia coli, UniProt P06611); assay: native mass spectrometry; assay type: binding; conditions: free BtuCD population beside BtuCD-F, C8E4
T1 construct: gene btuD; BtuC2D2 tetramer without BtuF; pET19b-BtuCD in E. coli BL21(DE3), LDAO purified, MS in C8E4; theoretical mass 128,839 Da; with Vitamin B12 import system permease protein BtuC
T1 sequence (P06611 1-249): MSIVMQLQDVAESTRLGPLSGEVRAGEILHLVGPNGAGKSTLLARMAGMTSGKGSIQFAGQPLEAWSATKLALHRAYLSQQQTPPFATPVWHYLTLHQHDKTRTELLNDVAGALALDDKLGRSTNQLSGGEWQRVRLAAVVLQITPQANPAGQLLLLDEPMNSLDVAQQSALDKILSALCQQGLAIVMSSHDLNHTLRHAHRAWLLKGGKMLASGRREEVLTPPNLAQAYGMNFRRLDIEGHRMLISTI
T1 sequence (P06609 1-326 partner): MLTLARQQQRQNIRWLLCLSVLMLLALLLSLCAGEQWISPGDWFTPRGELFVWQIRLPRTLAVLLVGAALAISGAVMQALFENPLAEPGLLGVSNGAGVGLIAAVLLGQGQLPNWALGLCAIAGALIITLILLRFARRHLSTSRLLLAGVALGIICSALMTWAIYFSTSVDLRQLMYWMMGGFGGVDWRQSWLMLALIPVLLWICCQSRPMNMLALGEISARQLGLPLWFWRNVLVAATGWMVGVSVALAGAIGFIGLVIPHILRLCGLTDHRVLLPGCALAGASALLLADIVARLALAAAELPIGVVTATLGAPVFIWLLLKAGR

BtuCD-F = biological target: T2, BtuCD-F (Escherichia coli, UniProt P06611); assay: native mass spectrometry; assay type: binding; conditions: then BtuF, C8E4
T2 construct: gene btuD; BtuC2D2-F complex; BtuCD from pET19b-BtuCD in E. coli BL21(DE3), LDAO purified, MS in C8E4; BtuF residues 23-266; theoretical mass 158,253 Da; with Vitamin B12 import system permease protein BtuC
T2 sequence (P06611 1-249): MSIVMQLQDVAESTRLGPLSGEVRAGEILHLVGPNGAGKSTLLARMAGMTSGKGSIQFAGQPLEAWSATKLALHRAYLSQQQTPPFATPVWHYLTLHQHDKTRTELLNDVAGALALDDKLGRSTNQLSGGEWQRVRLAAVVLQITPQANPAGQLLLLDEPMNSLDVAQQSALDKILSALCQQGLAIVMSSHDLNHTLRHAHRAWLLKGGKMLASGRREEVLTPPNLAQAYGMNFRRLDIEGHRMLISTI
T2 sequence (P06609 1-326 partner): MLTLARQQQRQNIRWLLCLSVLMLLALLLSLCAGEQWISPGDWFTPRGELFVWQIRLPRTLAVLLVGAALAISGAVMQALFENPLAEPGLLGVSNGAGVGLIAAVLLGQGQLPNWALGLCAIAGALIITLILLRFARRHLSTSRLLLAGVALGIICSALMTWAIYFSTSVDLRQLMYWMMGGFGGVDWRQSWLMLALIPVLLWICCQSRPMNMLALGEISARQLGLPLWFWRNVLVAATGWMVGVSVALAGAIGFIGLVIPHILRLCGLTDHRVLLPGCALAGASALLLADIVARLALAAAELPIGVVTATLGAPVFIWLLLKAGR
T2 sequence (P37028 23-266 partner): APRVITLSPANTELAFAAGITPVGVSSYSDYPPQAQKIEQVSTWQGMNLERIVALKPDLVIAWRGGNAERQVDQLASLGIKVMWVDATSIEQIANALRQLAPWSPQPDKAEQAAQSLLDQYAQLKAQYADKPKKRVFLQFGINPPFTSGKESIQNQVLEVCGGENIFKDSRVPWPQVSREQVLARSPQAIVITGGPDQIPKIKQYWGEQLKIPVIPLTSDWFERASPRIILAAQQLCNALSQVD

[1] = biological target: T3, ModBC-A⋅MoO4^2− (nucleotide row) (Archaeoglobus fulgidus, UniProt O30144); assay: native mass spectrometry; assay type: binding; conditions: 10 uM ATP and MgCl2 added to ModBC, ModA preloaded with molybdate; one and two ADP bound; C8E4
T3 construct: gene wtpC; nucleotide site on the NBDs (ModC); with Molybdate/tungstate transport system permease protein WtpB

[2] = biological target: T4, vitamin B12 transporter BtuCD (BtuC2D2) of Escherichia coli (E. coli, UniProt P06609 1-326; P06611 1-249); assay: native MS; BtuF and BtuCD incubated in a 1:2 molar ratio (BtuF:BtuCD) in 200 mM ammonium acetate with 0.5% C8E4; without ligand, or with 2 mM vitamin B12, dicyanocobinamide or vitamin B9 added to BtuF before buffer exchange, or 5 mM ATP/MgCl2 or 5 mM AMP-PNP added to BtuCD before buffer exchange, or vitamin B12 and ATP together; conditions: both partners purified
T4 construct: BtuC, transmembrane subunit of the vitamin B12 importer BtuCD, E. coli; construct pET19b-BtuCD, gift from Kaspar Locher; Purified on a HisTrap column from pET19b-BtuCD; also called tetrameric transporter; source: E. coli BL21(DE3), purified from membranes (LDAO, HisTrap, Superdex 200 SEC); copies: 2 + 2
T4 sequence 1: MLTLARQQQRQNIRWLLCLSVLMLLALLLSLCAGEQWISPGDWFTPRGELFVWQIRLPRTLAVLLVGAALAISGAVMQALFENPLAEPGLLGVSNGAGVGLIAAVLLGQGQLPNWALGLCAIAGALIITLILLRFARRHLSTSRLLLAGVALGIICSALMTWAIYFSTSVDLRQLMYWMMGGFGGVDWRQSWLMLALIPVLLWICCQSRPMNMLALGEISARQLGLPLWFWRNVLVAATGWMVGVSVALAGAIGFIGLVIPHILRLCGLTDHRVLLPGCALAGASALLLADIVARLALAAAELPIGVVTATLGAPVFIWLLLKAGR
T4 sequence 2: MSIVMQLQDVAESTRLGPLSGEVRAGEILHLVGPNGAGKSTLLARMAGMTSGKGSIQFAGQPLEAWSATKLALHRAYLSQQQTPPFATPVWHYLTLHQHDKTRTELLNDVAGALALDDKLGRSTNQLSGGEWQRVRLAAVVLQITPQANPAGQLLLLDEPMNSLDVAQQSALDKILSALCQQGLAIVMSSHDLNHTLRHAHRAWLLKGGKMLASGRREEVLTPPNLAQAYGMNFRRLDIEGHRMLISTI

[3] = biological target: T5, BtuC, transmembrane subunit of BtuCD of Escherichia coli (E. coli, UniProt P06609 1-326); assay: native MS; co-expressed and co-purified transporter alone, buffer exchanged into 200 mM ammonium acetate with 0.5% C8E4; conditions: both partners purified
T5 construct: BtuC, transmembrane subunit of the vitamin B12 importer BtuCD, E. coli; construct pET19b-BtuCD; source: E. coli BL21(DE3), co-purified as BtuCD from membranes (LDAO, HisTrap, SEC)
T5 sequence: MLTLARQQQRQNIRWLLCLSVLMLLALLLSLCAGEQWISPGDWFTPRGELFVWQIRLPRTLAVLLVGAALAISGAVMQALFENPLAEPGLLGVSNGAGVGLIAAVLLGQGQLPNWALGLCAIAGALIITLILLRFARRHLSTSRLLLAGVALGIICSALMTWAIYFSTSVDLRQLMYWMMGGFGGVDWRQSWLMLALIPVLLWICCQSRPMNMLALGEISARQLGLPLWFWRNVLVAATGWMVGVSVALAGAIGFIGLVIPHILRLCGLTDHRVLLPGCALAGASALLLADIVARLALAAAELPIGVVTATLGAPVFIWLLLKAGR

[4] = biological target: T6, ModB, transmembrane subunit of ModBC of Archaeoglobus fulgidus (A. fulgidus, UniProt O30143 1-261); assay: as above; conditions: both partners purified
T6 construct: ModB, transmembrane subunit of the molybdate importer ModBC, A. fulgidus; construct pET19b-ModBC; source: E. coli BL21(DE3), co-purified as ModBC from membranes (DDM and C12E8, HisTrap, SEC)
T6 sequence: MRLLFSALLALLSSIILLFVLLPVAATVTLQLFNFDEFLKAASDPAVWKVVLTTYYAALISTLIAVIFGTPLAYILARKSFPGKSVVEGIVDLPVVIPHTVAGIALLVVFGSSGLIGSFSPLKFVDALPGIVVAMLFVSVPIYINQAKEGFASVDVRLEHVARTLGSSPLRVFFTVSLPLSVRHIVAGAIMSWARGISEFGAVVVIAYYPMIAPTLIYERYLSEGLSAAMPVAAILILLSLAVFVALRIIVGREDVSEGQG

T3 sequence (O30142 32-342 partner, one chain of several): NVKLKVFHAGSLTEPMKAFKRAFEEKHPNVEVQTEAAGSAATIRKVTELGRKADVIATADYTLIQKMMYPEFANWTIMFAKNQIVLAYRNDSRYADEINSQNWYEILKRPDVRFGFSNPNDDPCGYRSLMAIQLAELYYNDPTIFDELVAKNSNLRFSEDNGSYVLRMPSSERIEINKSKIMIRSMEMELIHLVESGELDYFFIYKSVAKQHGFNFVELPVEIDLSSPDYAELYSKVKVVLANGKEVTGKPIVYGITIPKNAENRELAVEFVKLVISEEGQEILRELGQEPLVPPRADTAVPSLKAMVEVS

Molecule: Nc1ncnc2c1ncn2[C@@H]1O[C@H](COP(=O)(O)OP(=O)(O)NP(=O)(O)O)[C@@H](O)[C@H]1O [AMP-PNP, Adenosine 5’-(β,γ-imido)triphosphate]
- bound species by mass (BtuCD; 5 mM AMP-PNP added before buffer exchange): BtuCD was bound to the two different nucleotides in a similar fashion
- observed mass of complex (BtuCD-F; 5 mM AMP-PNP added to BtuCD before buffer exchange, two bound): apo-BtuCD-F as well as a population assigned to BtuCD-F⋅2AMP-PNP

Molecule: Nc1ncnc2c1ncn2[C@@H]1O[C@H](COP(=O)(O)OP(=O)(O)O)[C@@H](O)[C@H]1O [ADP]
- bound species by mass (BtuCD; 5 mM ATP and 5 mM MgCl2 added before buffer exchange): The presence of ADP-bound species of both BtuCD-F and BtuCD are observed
- observed mass of complex [1]: an apo form and the species bound to one and two ADP molecules
- observed mass of complex (BtuCD-F; 5 mM ATP and 5 mM MgCl2 added to BtuCD before buffer exchange, one and two ADP bound): two nucleotide-bound states with one and two ADP molecules bound

B2: BtuD, nucleotide binding subunit of BtuCD of Escherichia coli (natural protein, E. coli)
chain: MSIVMQLQDVAESTRLGPLSGEVRAGEILHLVGPNGAGKSTLLARMAGMTSGKGSIQFAGQPLEAWSATKLALHRAYLSQQQTPPFATPVWHYLTLHQHDKTRTELLNDVAGALALDDKLGRSTNQLSGGEWQRVRLAAVVLQITPQANPAGQLLLLDEPMNSLDVAQQSALDKILSALCQQGLAIVMSSHDLNHTLRHAHRAWLLKGGKMLASGRREEVLTPPNLAQAYGMNFRRLDIEGHRMLISTI
notes: construct pET19b-BtuCD; source: E. coli BL21(DE3), co-purified as BtuCD from membranes (LDAO, HisTrap, SEC)
- binding result [3]: binds

More lines, now with the values ahead:

- uncomplexed BtuCD relative to BtuCD-F (100%), with dicyanocobinamide [2]: 44%
- uncomplexed BtuCD relative to BtuCD-F (100%), with vitamin B9 [2]: 15%
- uncomplexed BtuCD relative to BtuCD-F (100%), with vitamin B12 [2]: 45%
- uncomplexed BtuCD relative to BtuCD-F, no substrate [2]: 10%
- uncomplexed BtuCD relative to BtuCD-F, with AMP-PNP [2]: 43%
- uncomplexed BtuCD relative to BtuCD-F, with ATP [2]: 40%
B1: periplasmic vitamin B12 substrate-binding protein BtuF of Escherichia coli (aa 23-266) (natural protein, E. coli, UniProt P37028 23-266, looked up)
chain: APRVITLSPANTELAFAAGITPVGVSSYSDYPPQAQKIEQVSTWQGMNLERIVALKPDLVIAWRGGNAERQVDQLASLGIKVMWVDATSIEQIANALRQLAPWSPQPDKAEQAAQSLLDQYAQLKAQYADKPKKRVFLQFGINPPFTSGKESIQNQVLEVCGGENIFKDSRVPWPQVSREQVLARSPQAIVITGGPDQIPKIKQYWGEQLKIPVIPLTSDWFERASPRIILAAQQLCNALSQVD
notes: also called SBP; source: E. coli BL21(DE3), purified (HisTrap, SEC; same protocol as ModA, final buffer with 10 mM DTT)

- binding result [4]: binds
B3: ModC, nucleotide binding subunit of ModBC of Archaeoglobus fulgidus (natural protein, A. fulgidus)
chain: MFLKVRAEKRLGNFRLNVDFEMGRDYCVLLGPTGAGKSVFLELIAGIVKPDRGEVRLNGADITPLPPERRGIGFVPQDYALFPHLSVYRNIAYGLRNVERVERDRRVREMAEKLGIAHLLDRKPARLSGGERQRVALARALVIQPRLLLLDEPLSAVDLKTKGVLMEELRFVQREFDVPILHVTHDLIEAAMLADEVAVMLNGRIVEKGKLKELFSAKNGEVAEFLSARNLLLKVSKILD
notes: construct pET19b-ModBC; source: E. coli BL21(DE3), co-purified as ModBC from membranes (DDM and C12E8, HisTrap, SEC)
